Test: soluble on expression in E. coli; label from the status in PepcDB or PDB records
In the case of “MASIVFSTIGNPKGYQKVTYEIDGEKFESNVSVLALRDLLKVDKTVVILGISVADVYNCKYADYRSCKECIIQNSKNDLGISESYVVAPNVYQKFKGKPDHYFTYIYYHSLRILEKEGINEVFIDTTHGINYMGVLAKEAIQLAVSAYAAKSEKEVKVSLYNSDPVGKDVSDTVKLHEIEAIKISPLSGLKYVTYQILNKDKNFFNKIFSDSVNAIPRFATALDNGLFIYLSEKDSSLHLKRLEDDLSKDPLLTPSENEINVVYKDMKYALSHALFYVISRFSGNVDLDTLRHYAETYADKVTRAIIENEVDKIEKYQMGSERKLLGEYMKVEGKGFDKRILYAHGGLPYAGTYVYKEKDKVYVTYGDKIDEIERQI”, the “soluble on expression in E. coli” value is reported as “soluble”. With “MSLNNIAPQSPVMRRLTLQDNPAIASVIRQVYAEYGLTADKGYTVADPNLDELYQVYSQPGHAYWVVEYNGEVVGGGGIAPLTGSEADICELQKMYFLPAIRGKGLAKKLALMAMEQAREMGFKRCYLETTAFLKEAIALYEHLGFEHIDYALGCTGHVDCEVRMLRELEGHHHHHH” the “soluble on expression in E. coli” value was “not soluble”. For “MKPWLITPERLTSEQIGLLDHFFDRGLERLHLRLPSAGEEDYSQVIEAVAACYRRRIVVHDHPRLVGRYGLCGLHLPERVWKGMTDRPQLPDGCTVSASCHAIEDIESFPFRLDYCFLSPVFDSLCKVGYAGRFSPDS”, the “soluble on expression in E. coli” value was “not soluble”. In the case of “MSLYTVLVADDKEVFRRKVKRMPYFQDHKEKFAIRYEAQNGLEALEILRSHDVDMVLTDIRMPFIDGIELLKHVNAENLCKCVILLSEFAEFNYAKAGILNGAFDYVLKPVDDEKIQETFDRAYNYLTTINAAVNAQTQRIETLARLMLAGDRMNALAYAKHIGAGLQAHGAITGERIVQANDTLAQLNKYILQKRPFLHYYLPFDELCCLDAKKTTPGKISDAFNACVSTVMDAIEPFCVQSTNELVGRTCQLVLEKLDSKVSLHGIADNLYVNPKYLGALFKKETGRSFVDYVTFARMERAKMLLRNPTLKVYEVAAQLGYDDVDYFSKVFKKLTAESPSIYREMRKEGHHHHHH”, the “soluble on expression in E. coli” value is reported as “soluble”. In the case of “MGSDKIHHHHHHMAVKVLSIDLGATNGKIYEVELKDRLTVKEIKRFRTEGTFLPGKDREHFVWNLPGFYEEIKGVLEASDAQSVGVDTWGVDFALLDENGRLVSLPYHYRDVRTKGVMKKAFEVVPKDEIFQRTGIQFMEINTLYQLYSMVLSNDPFLKTTKHLLMIPDVFNFWLSGEMVSEYTIASTSQCYSVPDGEWAYDLLEKLSIPTEIFPKVVPPGTILGKCRVKKGINVIATACHDTASAVVAVPLEGEGIYISSGTWFLVGTELERPLLSKEALERNFTNEGGYGKIRFLKNATGMWLLEECNRIWKKDYSEIIESVRNVPGFQAFLDPDREEFLHPGNMPERIRNYLERTGQKILERIGEISRLIFESLAFNCRWIVEQIKELTGKRYGKIHVVGGAVRNDLLMSFIASATGKTVVAGPVDATPIGNALVQLITLGAIANINEARKIVKESFELKTFEPKNPELWSEKYEEWRRYKGMRV”, the “soluble on expression in E. coli” value is reported as “not soluble”. In the case of “MAPDDTVNTLFQVYKTISFWKVLKNTLVIEFGRFFPWMGGKRKIYRVCLGMEIGEKTAIAYKVMPDLFFPEKILIGENSIIGYHTTILTHEYLLSEYRVGEVVIGRDVMVGANVTILPGTVIGDGAVIAAGAVVSVDVPAGSFAYGNPLIIKEKATLTLEHHHHHH”, the “soluble on expression in E. coli” value is reported as “soluble”. For “HQQQRSVMTEEYKVPDGMVGFIIGRGGEQISRIQQESGCKIQIAPDSGGLPERSCMLTGTPESVQSAKRLLDQIVEKGR”, the “soluble on expression in E. coli” value was “soluble”. With “MGSDKIHHHHHHMKESLRREYAPVKDLKPDDHIKMVQDIFSTITGKYDFLNHLLSFRRDVAWRRFAARKMHFSVTRRYLDVATGTADLALEVARRYPEVQVIGVDFVLEMLEKAVEKSARRDKIRDRVHFVQADALALPFADASFDVVGIAFGIRNIPGRLGALREFSRVLVDGGQVVVLEMQSPEQKMLRPLCTFYLRHVLPRLARRFTRNPAAYLYLADSILHFPSSDRFSGMMRDAGFADVRNYPLTLGITRLYVGRKGQ” the “soluble on expression in E. coli” value was “not soluble”. In the case of “MGSDKIHHHHHHMQDIDEFLKKHRITEIEAIIPDMAGIARGKIIPRSKFETGESMRLPQAVMIQTVTGDYPEDGSLTGVTDPDMVCLPDASTIRLIPWAIDPTAQVIHDCVHFDGTPVEISPRRVLRRVLELYKAKGWKPVIAPELEFYLVDMNKDPDLPLAPPIGRTGRPETGRQSYSIEAVNEFDPLFEDIYEYCEVQDLEVDTLIHEVGAAQMEINFLHGDPLNLADRVFLFKRTVREAALRHHMYATFMSKPMENEPGSAMHVHQSIVDEETGRNLFTGDDGGPTDMFYAYIAGLQKYTPALMPIFAPYINSYRRLSRFMAAPINVQWGYDNRTVGFRVPHSSPVSRRVENRIPGVDCNPYLAIAGTLAAGYLGMTRRLEPTEPLASDGYSLPYQLPRNLEEGLTLMSACEPLAEILGEKFVKAYLALKETEYEAFFRVISSWERKHLLLHV”, the “soluble on expression in E. coli” value is reported as “not soluble”. With “KKDDFRNEFDHLLIEQANHAIEKGEHQLLYLQHQLDELNENKSKELQEKIIRELDVVCAMIEGAQGALERELKRTDLNILERFNYEEAQTLSKILLKDLKETEQKVKDIQTQ” the “soluble on expression in E. coli” value was “soluble”. For “TTFTTRDGTQIYYKDWGSGQPIVFSHGWPLNADSWESQMIFLAAQGYRVIAHDRRGHGRSSQPWSGNDMDTYADDLAQLIEHLDLRDAVLFGFSTGGGEVARYIGRHGTARVAKAGLISAVPPLMLKTEANPGGLPMEVFDGIRQASLADRSQLYKDLASGPFFGFNQPGAKSSAGMVDWFWLQGMAAGHKNAYDCIKAFSETDFTEDLKKIDVPTLVVHGDADQVVPIEASGIASAALVKGSTLKIYSGAPHGLTDTHKDQLNADLLAFIKG”, the “soluble on expression in E. coli” value was “soluble”. For “MGSDKIHHHHHHGDDDDSSSSGNWQDLSKTYEGKSVNLVMGEVTVPVDGKSVVIAASSAEKASVTLNNIIPENKSVAIDAALKEADGTYTFTGESTVGDCVVSVNGTVKGGVASVVYTRKLTSSIVGNWSLKVGVEAIYANIVTGNSTIDDLVRMIKPAISNLIWGKVSAVNVNLPEDGIFDVSWRPIGASEDKGIGEITKMASIQYCVVDGKFMVAVDKNYVTVLTTLLQQAAGDKLEAAGISIDEIMKLLVDLGGYYGLPLNMKVDGSEATFYADKDLIVPVLTMIAPILKPMVPENYQQMVDMVLQLLPNAKTLEFGLNFTK”, the “soluble on expression in E. coli” value was “not soluble”. For “MNLPDGTQLVVGRQLAKVKSNQNWIRIPEYKVRGNKVIISHLWVGSINMPRRPFWSFRELWEKHLGRKDAINVWSRIRSYNTQVLLKILELLEKEPETQAKKLVKRATMHQLRNIAESFEEL”, the “soluble on expression in E. coli” value was “not soluble”. With “MRKAAALSLLVLVILSTTLAGCNFGKGSNEEDSKGTNLKLPCSIVSTISGEDVLYYEIEGDSLKKLDLDLKGHMEVYSEELGLAVYREFADKGTNLIITNGVKEHKISVEGNIEELIISPKGTKLLYRYNSGDKIGYKVLDLQNFKEFDFNENLAISGENVKFVNEDQLILYGVDLEKRQSGLYIYNIKDGSYTLEKQIVKAFIDYIDLVEDQVVLYTQSSIDGKKNCYIYNLDSKKESVISNEVGEIESLCKIGNVVYFIGTKGEGLRSLYSIDITNNKLDRLVYDFPKNISEKSKLIVVGDNIYFLGFNDSKEKNALYRYNLKDKSIKLIDSNKGQYIIIKMAGDPLEHHHHHH” the “soluble on expression in E. coli” value was “not soluble”. For “MGSDKIHHHHHHMWFKNLQLHRFSAPWSPSADEVEASLAKHAFFPGTSLEMQTQGWASPRDNGQLVHAVGRQMLLTLRTEKKLLPATVVNQVTKARAAEVEEQQGYKPGRKQLRELKEQVTEELLPRAFSIRRDTRVWIDPDNGWLAIDAASTAKADEVRGMLFKALDALPLANLHVNQSPVAAMTDWLSTDVAPAGFTVDQEIELQSGSESKATVRYVRHPLDAEDLRRHISGGKRCTRLAMTWNDRVSFVLTDSLAIKRVAPLDVIKEQADGTVSDEDERFDADFTLMAGELAGMLGDLTEALGGERKA”, the “soluble on expression in E. coli” value was “not soluble”. With “SNAMSKDSESNLAQRQSQPKAHADLRINSHWIIPIENTTDHNLVSNILIDHCLLIKDGIILAIEPQSSCQIPATETLDLGQQVLMPGWVNAHGHAAMSLFRGLADDLPLMTWLQEHVWPAEAQHVDEHFVKQGTELAIAEMIQSGTTTFADMYFYPQQSGEAALAAGIRAVCFAPVLDFPTNYAQNADEYIRKAIECNDRFNNHPMNEQGLVQIGFGPHAPYTVSDEPLKEITMLSDQLDMPVQIHLHETDFEVSESLETFNKRPTQRLADIGFLNERVSCVHMTQVDDGDIKILQKTGASIIHCPESNLKLASGFCPIAKLSAANIPLAIGTDGAASNNDLDMFSETKTAALLAKGVSQDASAIPAIEALTMATLGGARALGIDDITGSLKPGKAADIQAIDLNTLSSQPVFDPVSHMVYCTKSTQVSHVWVNGRCLLKNGELTTLNEETLINHAKAWASAIRTPIK” the “soluble on expression in E. coli” value was “soluble”. For “MGSDKIHHHHHHMTRGIYNAAMGMLVDMAKLDRIANDLANVDTAGYKQDREAFRAYLRREVFRQEPNPVESRTKKVPIGPLEYATVLDEVRTDLSQGPVEETDVPYHLAINGEGFFRIEFNGGEYYTRNGEFTVNSEGYIVTNYGGYLLDENGERVRFFDDFTVDEEGYVRDAYGNIVTRIGVYNLENPEKFGNTLFTGENPSPSENFRIMQGYVEKSNVDALKAMVDMISAMRHYELSQRAVTVNDELNGKLINSLASLK”, the “soluble on expression in E. coli” value was “not soluble”. In the case of “MKRLIICNGNKLTVCTQAISSGGIVEKYTPIFSLTKESDNELTLELSGVARGYYIIPSELTSSQARAAHLITLLTRAEESQTTDMHKILNSFVSGKITSGSMFNFENDGSFKREPEEAYNLINKI”, the “soluble on expression in E. coli” value is reported as “not soluble”. With “MKPADIDKLISEIRTAIYAEQSHRKIIEIDPDIYRKVRAALSDLQAEASEYFQKQDIENYLTMNNRFQTLKRDFRSLFQRRFEKIVAKAIYDISGETLSLLTDEEKEFIEKIHNIITEEFESFIPKREEKNEARAEAQPAPADESPTAIADQKPQEEPQVVQDQHQPPAEIPSENIEIKKEDGRYVLVMITEDLPPIAQLDRNYSLHSNDLVYLPQDLASILAKRKVALVLDQ” the “soluble on expression in E. coli” value was “soluble”. With “MANGTVLHFRFNVKQIRAKIVRKSYRFFPNDTAGHIRNMHDTMNKIFENSPPAFSYKPIETLNKCIAKVKSDVCHSTGGICKAAMDNVTNWVYNTTEGLFTTGTRLIV” the “soluble on expression in E. coli” value was “not soluble”. In the case of “AWQARGLGTARLQLVEFSAFVEPPDAVDSYQRHLFVHISQHCPSPGAPPLESVDVRQIYDKFPEKKGGLRELYDRGPPHAFFLVKFWADLNWGPSGEEAGAGGSISSGGFYGVSSQYESLEHMTLTCSSKVCSFGKQVVEKVETERAQLEDGRFVYRLLRSPMCEYLVNFLHKLRQLPERYMMNSVLENFTILQVVTNRDTQELLLCTAYVFEVSTSERGAQHHIYRLVRD”, the “soluble on expression in E. coli” value is reported as “soluble”. For “NGWVWKLGMNLTHYKNKVTELPLKDMPQSGVNKLQVGRSVYDFYMKEWAGVDPDNGNPLWYMDEKDANDNLTGKRVTTSDYASANYYYVNKSSLPKVYGGFNTSLSWKGFDLSAIFAYSIGGYIYNRDITMILHNGSLEGRDWSTEILKRWTPENRYTDVPALSTTSNNWNSASTRFLQNNSYMRLKNLTLSYDLPKQWISKLALSSVQVFVQGDNLFTIHRNQGLDPEQGITGITYYRYPAMRTISGGINLSF”, the “soluble on expression in E. coli” value was “not soluble”.

— the DeepSol protein solubility set
